Source: US20090258363
Where two headings read alike, the source gives them in different places.

Tests used:
[1] = tested on: ZFP-FokI 4-residue ZC linker (synthetic); experiment: cleavage_in_vitro
[2] = tested on: CCR-5 ZFN (GATGAGGATGAC) (synthetic); experiment: cell_activity; details: K562, with p32
[3] = tested on: ZFP-FokI 10-residue ZC linker (synthetic); experiment: cleavage_in_vitro
[4] = tested on: 287A ZFP-FokI (cells) (synthetic); experiment: cell_activity; details: with 296; 0.16 alone, 0.01 donor only
[5] = tested on: 287A ZFP-FokI Q486E Q486E (FokI numbering) (synthetic); experiment: cell_activity; details: with 296 E490K; 0.0 alone
[6] = tested on: 296S ZFP-FokI (cells) (synthetic); experiment: cell_activity; details: with 287; 0.6 alone, 0.01 donor only
[7] = tested on: 296S ZFP-FokI E490K E490K (FokI numbering) (synthetic); experiment: cell_activity; details: with 287 Q486E; 0.01 alone
[8] = tested on: ZFP-FokI 2-residue ZC linker (synthetic); experiment: cleavage_in_vitro
[9] = tested on: CCR-5 ZFN (AAACTGCAAAAG) (synthetic); experiment: cell_activity; details: K562, with p31

Work on “CTAGCATTATCCGAGTTCACACACACAACTCGGATAATGCTAG (double strand) [9 bp separation]” yielded an activity [1] of 23 % cleaved.
Sequence “CTAGCATTATCCGAGTTCACACACAACTCGGATAATGCTAG (double strand) [7 bp separation]” has an activity [1] of 80 % cleaved.
Work on “CTAGCATTATCCGAGTTCACACAACTCGGATAATGCTAG (double strand) [5 bp separation]” yielded an activity [1] of 92 % cleaved.
“GATGAGGATGAC (double strand) [CCR-5 site 1]” was tested, and the activity (% targeted insertion) [2] was 1.
For “CTAGCATTATCCGAGTTCACCACCAACCACACAACTCGGATAATGCTAG (double strand) [15 bp separation]”, the activity [3] was 88 % cleaved and the activity [1] was 97 % cleaved.
GGGGTAGCGG (double strand) [287A site] showed an activity (% corrected cells) [4] of 1.2 and an activity (% corrected cells) [5] of 0.62.
Work on “CTAGCATTATCCGAGTTCACCACCAACACAACTCGGATAATGCTAG (double strand) [12 bp separation]” yielded an activity [1] of 22 % cleaved.
In the case of GAAGCAGCA (double strand) [296S site], the activity (% corrected cells) [6] is reported as 1.2 and the activity (% corrected cells) [7] is reported as 0.62.
“CTAGGCATTATCCGAGTTCACCACAACTCGGATAATGACTAG (double strand) [6 bp separation]” gave an activity [3] of 76 % cleaved, an activity [8] of 78 % cleaved and an activity [1] of 95 % cleaved.
“CTAGCATTATCCGAGTTCACCACCAACCACACCAACTCGGATAATGCTAG (double strand) [16 bp separation]” gave an activity [8] of 59 % cleaved and an activity [1] of 100 % cleaved.
With “CTAGCATTATCCGAGTTACACAACTCGGATAATGCTAG (double strand) [4 bp separation]” the activity [3] was 4 % cleaved, the activity [8] was 74 % cleaved and the activity ([1]; Mg, Zn, 37 C) was 74 % cleaved.
“AAACTGCAAAAG (double strand) [CCR-5 site 2]” showed an activity (% targeted insertion) [9] of 1.
For “CTAGCATTATCCGAGTTCAACCACCAACCACACCAACTCGGATAATGCTAG (double strand) [17 bp separation]”, the activity [1] was 77 % cleaved.
“CTAGCATTATCCGAGTTCAACCACCAACCACACCAACACAACTCGGATAATGCTAG (double strand) [22 bp separation]” showed an activity [1] of 5 % cleaved.
“CTAGCATTATCCGAGTTCACCACACAACTCGGATAATGCTAG (double strand) [8 bp separation]” showed an activity [3] of 63 % cleaved and an activity [1] of 8 % cleaved.
“CTAGCATTATCCGAGTTCAACCACCAACCACACCAACACCACCAACTCGGATAATGCTAG (double strand) [26 bp separation]” showed an activity [1] of 35 % cleaved.
